Data as given in patent publication US20160376372A1 (VACCINEX, published 2016).

T1: human CD20 antigen (human, UniProt P11836 1-297)
T1 construct: whole, on cells; also called Bp35; B1
T1 sequence (looked up): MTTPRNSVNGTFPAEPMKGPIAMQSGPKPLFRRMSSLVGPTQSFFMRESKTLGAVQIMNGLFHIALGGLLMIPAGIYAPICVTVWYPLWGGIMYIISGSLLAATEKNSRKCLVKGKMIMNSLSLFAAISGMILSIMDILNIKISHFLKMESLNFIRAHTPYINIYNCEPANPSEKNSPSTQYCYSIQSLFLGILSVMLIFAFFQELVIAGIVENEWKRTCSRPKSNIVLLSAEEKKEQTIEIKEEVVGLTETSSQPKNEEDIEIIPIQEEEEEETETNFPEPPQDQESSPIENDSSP


Assays:
[1] = target: human CD20 antigen (human) (UniProt P11836); assay: flow cytometry, EHEB cells (CD20 positive)
[2] = target: human CD20 antigen (human) (UniProt P11836); assay: flow cytometry, Daudi cells (CD20 positive)
[3] = target: human CD20 antigen (human) (UniProt P11836); assay: flow cytometry, EB1 cells (CD20 positive)
[4] = target: human CD20 antigen (human) (UniProt P11836); assay: flow cytometry, Daudi cells (CD20 positive); remark: listed apart in the source
human CD20 antigen [5] = target: T1, human CD20 antigen; assay: flow cytometry, Daudi cells (CD20 positive)
Protocol: (§1) Binding specificity was assessed by Flow Cytometry, which tabulates Mean Fluorescence Intensities (MFI) of staining on CD20 positive (CD20⁺) and CD20 negative cell lines.

human CD20 antigen [6] = target: T1, human CD20 antigen; assay: flow cytometry, EHEB cells (CD20 positive)
Protocol: as §1

human CD20 antigen [7] = target: T1, human CD20 antigen; assay: flow cytometry, CHO.CD20 cells (CD20 positive)
Protocol: as §1

human CD20 antigen [8] = target: T1, human CD20 antigen; assay: flow cytometry, EB1 cells (CD20 positive)
Protocol: (§2) Binding specificity was assessed by Fluorometric Microvolume Assay Technology (FMAT, Applied Biosystems 8200 Cellular Detection System) and Flow Cytometry, which tabulates Mean Fluorescence Intensities (MFI) of staining on CD20 positive (CD20⁺) and CD20 negative cell lines.

human CD20 antigen [9] = target: T1, human CD20 antigen; assay: flow cytometry, Daudi cells (CD20 positive); remark: listed apart in the source
Protocol: as §2

Mean Fluorescence Intensity (MFI) (human CD20 antigen [5])	Mean Fluorescence Intensity (MFI) (human CD20 antigen [6])	Mean Fluorescence Intensity (MFI) (human CD20 antigen [7])	Mean Fluorescence Intensity (MFI) (human CD20 antigen [8])	Mean Fluorescence Intensity (MFI) (human CD20 antigen [9])	Molecule	also measured
					mAb 271 (rituximab-sequence antibody)	Mean Fluorescence Intensity (MFI) [1]: 130 MFI; Mean Fluorescence Intensity (MFI) [2]: 941 MFI; Mean Fluorescence Intensity (MFI) [3]: 429 MFI; Mean Fluorescence Intensity (MFI) [4]: 145 MFI
1370 MFI	161 MFI	106 MFI	395 MFI	132 MFI	optimized humanized mAb 1237 (antibody, V domains shown, detected with anti-human Ig Fc) VH: QVQLVQSGAEVKKPGSSVKVSCKASGYTFTSYNMHWVRQAPGQGLEWIGAIYPGNGDTSYNQKFKGKATITADKSTSTAYMELSSLRSDDTAVYYCARSTYYAGDWNFNNWGQGTLVTVSS VL: DIQMTQSPSSLSASVGDRVTITCRASSSVSYIHWFQQKPGKAPKPLIYAASSLQSGVPSRFSGSGSGTDYTLTISSLQPEDFATYYCQQWTSNPPTFGGGTKLEIK	
			389 MFI	114 MFI	optimized humanized mAb 1238 (antibody, V domains shown, detected with anti-human Ig Fc) VH: QVQLVQSGAEVKKPGSSVKVSCKASGYTFTSYNMHWVRQAPGQGLEWIGAIYPGNGDTSYNQKFKGKATITADKSTSTAYMELSSLRSDDTAVYYCARSTYYAGDWNFNDWGQGTLVTVSS VL: DIQMTQSPSSLSASVGDRVTITCRASSSVSYIHWFQQKPGKAPKPLIYAASSLQSGVPSRFSGSGSGTDYTLTISSLQPEDFATYYCQQWTSNPPTFGGGTKLEIK	
1630 MFI	429 MFI	135 MFI			optimized humanized mAb 1590 (antibody, V domains shown) VH: QVQLVQSGAEVKKPGSSVKVSCKASGYTFTSYNMHWVRQAPGQGLEWIGAIYPGNGLTSYNQKFKGKATITADKSTSTAYMELSSLRSDDTAVYYCARSTYYAGDWNFNNWGQGTLVTVSS VL: DIQMTQSPSSLSASVGDRVTITCRASSSVSYIHWFQQKPGKAPKPLIYAASSLQSGVPSRFSGSGSGTDYTLTISSLQPEDFATYYCQQWTSNPPTFGGGTKLEIK	
1030 MFI	345 MFI	140 MFI			optimized humanized mAb 1589 (antibody, V domains shown) VH: QVQLVQSGAEVKKPGSSVKVSCKASGYTFTSYNMHWVRQAPGQGLEWIGAIYPGNGATSYNQKFKGKATITADKSTSTAYMELSSLRSDDTAVYYCARSTYYAGDWNFNNWGQGTLVTVSS VL: DIQMTQSPSSLSASVGDRVTITCRASSSVSYIHWFQQKPGKAPKPLIYAASSLQSGVPSRFSGSGSGTDYTLTISSLQPEDFATYYCQQWTSNPPTFGGGTKLEIK	
2070 MFI	338 MFI	140 MFI			optimized humanized mAb 1588 (antibody, V domains shown) VH: QVQLVQSGAEVKKPGSSVKVSCKASGYTFTFYNMHWVRQAPGQGLEWIGAIYPGNGDTSYNQKFKGKATITADKSTSTAYMELSSLRSDDTAVYYCARSTYYAGDWNFNNWGQGTLVTVSS VL: DIQMTQSPSSLSASVGDRVTITCRASSSVSYIHWFQQKPGKAPKPLIYAASSLQSGVPSRFSGSGSGTDYTLTISSLQPEDFATYYCQQWTSNPPTFGGGTKLEIK	
			409 MFI	145 MFI	optimized humanized mAb 1236 (antibody, V domains shown, detected with anti-human Ig Fc) VH: QVQLVQSGAEVKKPGSSVKVSCKASGYTFTSYNMHWVRQAPGQGLEWIGAIYPGNGDTSYNQKFKGKATITADKSTSTAYMELSSLRSDDTAVYYCARSTYYGGDWNFNNWGQGTLVTVSS VL: DIQMTQSPSSLSASVGDRVTITCRASSSVSYIHWFQQKPGKAPKPLIYAASSLQSGVPSRFSGSGSGTDYTLTISSLQPEDFATYYCQQWTSNPPTFGGGTKLEIK	
1420 MFI	529 MFI	135 MFI			optimized humanized mAb 1652 (antibody, V domains shown) VH: QVQLVQSGAEVKKPGSSVKVSCKASGYTFTSYNMHWVRQAPGQGLEWIGAIYPGNGATSYNQKFKGKATITADKSTSTAYMELSSLRSDDTAVYYCARSTYYAGDWNFNNWGQGTLVTVSS VL: DIQMTQSPSSLSASVGDRVTITCRASSSVSYIHWFQQKPGKAPKPLIYAASSLQSGVPSRFSGSGSGTDYTLTISSLQPEDFATYYCQQWQSNPPTFGGGTKLEIK	
1670 MFI	450 MFI	137 MFI			optimized humanized mAb 1692 (antibody, V domains shown) VH: QVQLVQSGAEVKKPGSSVKVSCKASGYTFTSYNMHWVRQAPGQGLEWIGAIYPGNGDTSYNQKFKGKATITADKSTSTAYMELSSLRSDDTAVYYCARSTYYAGDWNFGNWGQGTLVTVSS VL: DIQMTQSPSSLSASVGDRVTITCRASSSVSYIHWFQQKPGKAPKPLIYAASSLQSGVPSRFSGSGSGTDYTLTISSLQPEDFATYYCQQWTSNPPTFGGGTKLEIK	
